Laboratory results published in IntAct's records for PubMed 24668264.
Blank lines part the entries; values can stand above or below the substance they belong to.

Columns and labels:
wdfy3_human WDFY3 = wdfy3_human WDFY3 (UniProt Q8IZQ1)
mlp3b_human MAP1LC3B = mlp3b_human MAP1LC3B (UniProt Q9GZQ8)
mlp3c_human MAP1LC3C [1] = target: mlp3c_human MAP1LC3C (UniProt Q9BXW4)
mlp3c_human MAP1LC3C [2] = target: mlp3c_human MAP1LC3C (UniProt Q9BXW4); remark: listed apart in the source

Sequence of UniProt Q9BXW4 (Q9BXW4 whole entry): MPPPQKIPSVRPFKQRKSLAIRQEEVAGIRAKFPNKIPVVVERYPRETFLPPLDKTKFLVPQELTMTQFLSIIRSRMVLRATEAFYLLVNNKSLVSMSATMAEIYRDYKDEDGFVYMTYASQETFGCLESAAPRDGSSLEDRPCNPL
Sequence of UniProt Q8IZQ1 (Q8IZQ1 whole entry): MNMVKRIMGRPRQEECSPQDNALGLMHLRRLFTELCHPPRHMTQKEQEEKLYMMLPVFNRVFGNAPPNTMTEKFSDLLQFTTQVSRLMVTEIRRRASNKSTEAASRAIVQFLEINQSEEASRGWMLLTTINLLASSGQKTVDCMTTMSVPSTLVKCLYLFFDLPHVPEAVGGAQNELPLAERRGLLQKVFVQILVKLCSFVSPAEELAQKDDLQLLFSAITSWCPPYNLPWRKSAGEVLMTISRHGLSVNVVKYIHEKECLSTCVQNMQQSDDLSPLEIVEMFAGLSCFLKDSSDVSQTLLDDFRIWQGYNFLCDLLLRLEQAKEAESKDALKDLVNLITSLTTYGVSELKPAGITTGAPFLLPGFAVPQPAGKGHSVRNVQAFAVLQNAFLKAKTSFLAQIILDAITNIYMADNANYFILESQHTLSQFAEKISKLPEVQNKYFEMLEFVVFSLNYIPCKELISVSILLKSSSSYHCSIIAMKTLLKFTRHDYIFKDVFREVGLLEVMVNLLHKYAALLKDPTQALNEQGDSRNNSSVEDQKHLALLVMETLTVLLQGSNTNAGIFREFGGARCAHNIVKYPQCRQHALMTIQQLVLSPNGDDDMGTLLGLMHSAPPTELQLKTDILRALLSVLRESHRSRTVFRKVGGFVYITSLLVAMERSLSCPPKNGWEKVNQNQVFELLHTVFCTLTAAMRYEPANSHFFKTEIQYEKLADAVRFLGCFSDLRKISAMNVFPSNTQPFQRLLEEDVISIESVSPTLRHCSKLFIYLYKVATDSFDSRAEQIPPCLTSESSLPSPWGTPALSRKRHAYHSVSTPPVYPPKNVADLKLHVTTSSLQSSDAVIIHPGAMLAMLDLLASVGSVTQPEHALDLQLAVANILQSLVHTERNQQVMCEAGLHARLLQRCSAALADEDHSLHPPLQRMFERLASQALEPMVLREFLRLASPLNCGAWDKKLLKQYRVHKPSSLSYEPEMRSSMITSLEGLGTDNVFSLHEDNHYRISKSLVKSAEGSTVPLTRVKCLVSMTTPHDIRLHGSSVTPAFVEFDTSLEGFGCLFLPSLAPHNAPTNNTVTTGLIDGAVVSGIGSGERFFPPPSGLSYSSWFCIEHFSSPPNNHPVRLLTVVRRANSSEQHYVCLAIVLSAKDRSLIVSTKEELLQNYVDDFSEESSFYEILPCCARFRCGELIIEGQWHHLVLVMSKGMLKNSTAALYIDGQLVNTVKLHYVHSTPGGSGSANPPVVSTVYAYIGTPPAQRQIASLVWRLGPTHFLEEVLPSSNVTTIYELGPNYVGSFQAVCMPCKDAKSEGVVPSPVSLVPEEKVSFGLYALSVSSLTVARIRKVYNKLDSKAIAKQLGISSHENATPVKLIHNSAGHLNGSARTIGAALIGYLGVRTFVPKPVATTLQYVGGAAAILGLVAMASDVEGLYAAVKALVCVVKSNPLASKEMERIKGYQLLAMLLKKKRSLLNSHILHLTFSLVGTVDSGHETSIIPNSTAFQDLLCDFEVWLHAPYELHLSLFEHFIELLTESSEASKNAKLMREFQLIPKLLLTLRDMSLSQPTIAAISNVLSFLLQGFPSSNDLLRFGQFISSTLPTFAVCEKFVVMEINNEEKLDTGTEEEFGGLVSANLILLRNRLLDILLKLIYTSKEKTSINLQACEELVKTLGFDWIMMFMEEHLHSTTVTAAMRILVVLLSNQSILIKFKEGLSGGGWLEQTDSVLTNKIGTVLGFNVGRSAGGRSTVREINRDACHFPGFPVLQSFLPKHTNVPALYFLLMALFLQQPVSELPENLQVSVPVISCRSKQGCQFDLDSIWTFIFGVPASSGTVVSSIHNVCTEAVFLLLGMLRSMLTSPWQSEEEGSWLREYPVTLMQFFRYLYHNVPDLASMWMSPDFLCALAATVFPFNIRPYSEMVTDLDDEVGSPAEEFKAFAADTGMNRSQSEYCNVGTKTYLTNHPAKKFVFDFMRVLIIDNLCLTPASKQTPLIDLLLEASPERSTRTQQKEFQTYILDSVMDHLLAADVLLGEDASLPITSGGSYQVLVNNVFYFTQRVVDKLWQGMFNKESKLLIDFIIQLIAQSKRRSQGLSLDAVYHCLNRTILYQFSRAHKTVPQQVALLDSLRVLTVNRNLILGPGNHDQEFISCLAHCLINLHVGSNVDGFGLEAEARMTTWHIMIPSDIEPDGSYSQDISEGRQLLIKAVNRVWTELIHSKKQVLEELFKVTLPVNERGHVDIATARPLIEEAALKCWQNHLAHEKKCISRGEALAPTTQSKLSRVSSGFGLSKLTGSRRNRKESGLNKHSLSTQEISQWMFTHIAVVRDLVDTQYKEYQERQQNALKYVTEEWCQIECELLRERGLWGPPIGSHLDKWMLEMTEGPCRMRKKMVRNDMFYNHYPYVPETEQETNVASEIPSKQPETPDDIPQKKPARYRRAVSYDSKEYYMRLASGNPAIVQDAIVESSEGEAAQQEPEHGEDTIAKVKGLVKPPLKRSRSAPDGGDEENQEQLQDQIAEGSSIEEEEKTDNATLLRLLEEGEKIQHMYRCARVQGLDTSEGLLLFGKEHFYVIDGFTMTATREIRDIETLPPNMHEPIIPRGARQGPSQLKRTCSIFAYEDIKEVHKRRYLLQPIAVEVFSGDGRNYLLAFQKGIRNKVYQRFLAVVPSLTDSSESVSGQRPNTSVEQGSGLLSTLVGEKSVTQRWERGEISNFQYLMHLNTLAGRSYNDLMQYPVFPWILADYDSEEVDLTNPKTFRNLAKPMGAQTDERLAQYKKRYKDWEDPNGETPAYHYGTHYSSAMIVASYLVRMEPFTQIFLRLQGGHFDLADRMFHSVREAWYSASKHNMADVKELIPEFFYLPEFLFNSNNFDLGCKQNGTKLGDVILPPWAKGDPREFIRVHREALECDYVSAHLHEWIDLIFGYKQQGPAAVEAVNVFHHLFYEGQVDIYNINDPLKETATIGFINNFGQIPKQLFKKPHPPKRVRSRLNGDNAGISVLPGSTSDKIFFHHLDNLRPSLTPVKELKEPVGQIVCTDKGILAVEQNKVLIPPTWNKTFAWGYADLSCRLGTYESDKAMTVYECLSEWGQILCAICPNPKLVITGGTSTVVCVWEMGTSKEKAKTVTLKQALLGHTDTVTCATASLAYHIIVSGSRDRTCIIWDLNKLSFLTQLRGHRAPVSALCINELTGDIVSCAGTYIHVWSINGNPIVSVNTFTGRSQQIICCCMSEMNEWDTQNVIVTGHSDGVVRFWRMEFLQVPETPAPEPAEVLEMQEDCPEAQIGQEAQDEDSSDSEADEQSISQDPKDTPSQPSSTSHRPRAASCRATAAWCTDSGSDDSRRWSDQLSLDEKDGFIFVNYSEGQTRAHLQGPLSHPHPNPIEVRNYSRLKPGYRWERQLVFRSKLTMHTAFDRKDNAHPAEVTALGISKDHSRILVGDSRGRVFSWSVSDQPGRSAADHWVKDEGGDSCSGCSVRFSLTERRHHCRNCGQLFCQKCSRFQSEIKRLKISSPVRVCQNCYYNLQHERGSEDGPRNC

effect of a mutation on the interaction (wdfy3_human WDFY3): increasing interaction
Substance: Microtubule-associated protein 1 light chain 3 beta (Homo sapiens) (from UniProt Q9GZQ8) Q26K;H27Y;H57D

effect of a mutation on the interaction (mlp3b_human MAP1LC3B): disrupting interaction
Substance: WD repeat and FYVE domain-containing protein 3 (Homo sapiens), Q8IZQ1 F3346A

effect of a mutation on the interaction (mlp3c_human MAP1LC3C [1]): decreasing interaction
Substance: WD repeat and FYVE domain-containing protein 3 (Homo sapiens), Q8IZQ1 I3347A

effect of a mutation on the interaction (mlp3c_human MAP1LC3C [2]): decreasing interaction
Substance: WD repeat and FYVE domain-containing protein 3 (Homo sapiens), Q8IZQ1 V3349A
